From paper doi:10.1101/2022.09.14.507982 come the findings set out here.

The test addresses F-actin (filamentous actin from rabbit muscle) (rabbit) (UniProt P68135). In words: co-sedimentation.

Substance “Ig3 domain of palladin (domain or fragment)” displayed a Kd of 3.42 µM.

As usually defined, the Kd is the equilibrium constant for the complex coming apart. The low end stands for a tighter complex, the high end for a looser complex.
